Results on four molecules are retold here after patent US20190263905A1 (DINONA, published 2019).

For test [1], the target named is T1, CD66c (CEACAM6) on CD66c-positive A549 non-small-cell lung cancer cells (UniProt P40199 35-320, limits assumed).
T1 construct: whole, on cells; also called CD66c antigen; NCA-90
T1 sequence (looked up): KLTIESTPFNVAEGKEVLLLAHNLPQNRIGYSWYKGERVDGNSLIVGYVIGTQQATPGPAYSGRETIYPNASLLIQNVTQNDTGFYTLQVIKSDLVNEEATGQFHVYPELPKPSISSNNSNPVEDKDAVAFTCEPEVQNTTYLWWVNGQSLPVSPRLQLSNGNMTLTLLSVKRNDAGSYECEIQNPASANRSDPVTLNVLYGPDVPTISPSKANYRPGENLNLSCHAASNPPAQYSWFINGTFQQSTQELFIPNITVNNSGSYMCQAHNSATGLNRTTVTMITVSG
Put plainly: flow cytometry on CD66c-positive A549 cells, mean fluorescence. On the procedure: (§1) Each expressed 96 recombinant humanized antibody was poured and reacted in a test tube containing the same amount ([…]) of CD66c-positive A549 non-small-cell lung cancer cell line at 4° C. for 30 minutes, washed with PBS, and treated with FITC-conjugated goat anti-Human IgG (DiNona Inc, Korea) was added and incubated at 4° C. for 15 minutes. After washing with PBS, the cells were analyzed with a flow cytometer (Stratedigm, S1000EXi) and the results are shown below.
(§2) Among the 96 recombinant humanized antibody candidates, eight were firstly selected based on the degree of expression, the presence of aggregation, and the degree of cell binding (Table 9 and Table 10, FIGS. 3A to 3E).
(Flow cytometry measures light scatter and fluorescence of single cells or particles in a stream.)

The target of test [2] is T1, CD66c (CEACAM6) on CD66c-positive A549 …. Description: flow cytometry on A549 cells, relative to chimeric antibody. Here is the method:
as §1, §2

The target is the same in test [3]. Put plainly: flow cytometry on CD66c-positive A549 cells, FITC anti-human IgG. Here is the method: as §1, §2
For test [4], the target named is T2, Antigen CD66c (CEACAM6; Sino Biological, Inc.) (UniProt P40199 35-320).
T2 construct: Bought antigen coated on the ELISA plate; construct not described; also called CD66c antigen; CECACAM6
T2 sequence (looked up): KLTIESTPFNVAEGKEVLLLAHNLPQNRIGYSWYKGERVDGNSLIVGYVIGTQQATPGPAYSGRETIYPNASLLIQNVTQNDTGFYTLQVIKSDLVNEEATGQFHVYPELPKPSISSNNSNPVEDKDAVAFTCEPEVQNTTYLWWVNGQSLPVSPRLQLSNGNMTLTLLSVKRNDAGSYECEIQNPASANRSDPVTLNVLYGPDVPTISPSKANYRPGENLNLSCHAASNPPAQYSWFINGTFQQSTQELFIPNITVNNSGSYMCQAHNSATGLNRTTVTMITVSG
Description: ELISA, coated CEACAM6 100 ng/well, antibody 1.52 ng/ml. On the procedure: (§3) Antigen CD66c (CEACAM6; Sino Biological, Inc.) and CEACAM1 antigen (Sino Biological, Inc.) were coated on a 96-well plate at 100 ng per well and then blocked. The primary antibody was diluted serially three fold from 10 ug/ml at initial concentration and was bound at 37° C. for 1 hour, and goat anti-Human Ig-HRP conjugate (Jackson ImmunoResearch) as a secondary antibody was diluted 1:10,000 and incubated at 37° C. for 30 minutes. The washing was carried out at three times between each step, and the TMB reaction was performed, stopped with 1N H₂SO₄ solution at the same amount of TMB solution (100 ul) and then OD value was measured at 450 nm.
(§4) As a result of the experiment, the binding affinities to CD66c antigen of the five kinds of recombinant humanized antibodies selected from among 96 kinds of recombinant humanized antibodies are shown in FIG. 4a, Table 12, FIG. 4b and Table 13. FIG. 4a and Table 12 show the binding capacity of the antibodies to CECACAM6 CD66c) antigen, and FIG. 4b and Table 13 are the results for the CEACAM1 (CD66a) antigen.
(In general: In an ELISA, binding on a coated surface is turned into a signal by an enzyme label.)

Test [5] addresses T2, Antigen CD66c (CEACAM6; Sino …). Put plainly: ELISA, coated CEACAM6 100 ng/well, antibody 123.46 ng/ml. On the procedure:
as §3, §4

For test [6] the target is unchanged. Put plainly: ELISA, coated CEACAM6 100 ng/well, antibody 1111.11 ng/ml. Here is the method:
as §3, §4

Test [7] shares this target. Put plainly: ELISA, coated CEACAM6 100 ng/well, antibody 0.17 ng/ml. Here is the method: as §3, §4
Test [8] shares this target. Description: ELISA, coated CEACAM6 100 ng/well, antibody 3333.33 ng/ml. Here is the method: as §3, §4
For test [9] the target is unchanged. Description: ELISA, coated CEACAM6 100 ng/well, antibody 4.57 ng/ml. Here is the method: as §3, §4
Test [10] has the same target. Description: ELISA, coated CEACAM6 100 ng/well, antibody 41.15 ng/ml. Here is the method: as §3, §4
Test [11] has the same target. Description: ELISA, coated CEACAM6 100 ng/well, antibody 0.51 ng/ml. On the procedure:
as §3, §4

For test [12] the target is unchanged. Put plainly: ELISA, coated CEACAM6 100 ng/well, antibody 13.72 ng/ml. Here is the method:
as §3, §4

Test [13] has the same target. Put plainly: ELISA, coated CEACAM6 100 ng/well, antibody 370.37 ng/ml. Here is the method:
as §3, §4

Test [14] shares this target. Put plainly: ELISA, coated CEACAM6 100 ng/well, antibody 10000.00 ng/ml. On the procedure: as §3, §4

B1: recombinant humanized anti-CD66c antibody Protein ID 3004 (Vk7 + VH5) (antibody, human IgG1, V domains shown)
VH: QVQLVQSGAEVKKPGASVKISCKASGYSFTDYTMNWVRQAHGQNLEWIGLINPFHGGTVSNQRFKVKATLTVDVSTNTAYMELSRLRSDDTAVYYCVRGDPVRHYYALAYWGQGTLVTVSS
VL: DIQMTQSPSTLSASVGDRVTITCGASENVYGTLNWYQRKPGKAPKLLIYGATNLADGVPSRFSGSGSGTEYTLTISSLQPDDFATYYCQNVLSAPYTFGGGTKLEIK
notes: also called #41
In test [1], B1 registered a Mean of 541. Further, the “% (% gated × mean)” value in test [2] came out at 85%. In [3], the “% gated” value turned out to be 71%.

B2: recombinant humanized anti-CD66c antibody Protein ID 3010 (Vk7 + VH7) (antibody, human IgG1, V domains shown)
VH: QVQLVQSGAEVKKPGASMKISCKASGYSFTDYTMNWVRQAPGQGLEWIGLINPFHGGTVSNQRFKVKATLTVDVSTNTAYMELSRLRSDDTAVYYCVRGDPVRHYYALAYWGQGTLVTVSS
VL: DIQMTQSPSTLSASVGDRVTITCGASENVYGTLNWYQRKPGKAPKLLIYGATNLADGVPSRFSGSGSGTEYTLTISSLQPDDFATYYCQNVLSAPYTFGGGTKLEIK
notes: also called #45
B2 returned a Mean in [1] of 554. Moreover, the “% (% gated × mean)” value in [2] amounted to 85.8%. Further, the “% gated” value in [3] is 70%.

B3: recombinant humanized anti-CD66c antibody Protein ID 3046 (Vk8 + VH7) (antibody, human IgG1, V domains shown)
VH: QVQLVQSGAEVKKPGASMKISCKASGYSFTDYTMNWVRQAPGQGLEWIGLINPFHGGTVSNQRFKVKATLTVDVSTNTAYMELSRLRSDDTAVYYCVRGDPVRHYYALAYWGQGTLVTVSS
VL: DIQMTQSPSTLSASVGDRVTITCRASENVYGTLNWYQRKPGKAPKLLIYGATNLADGMPSRFSGSGSGTEYTLTISSLQPDDFATYYCQNVLSAPYTFGGGTKLEIK
notes: also called #74
Regarding B3, the Mean in test [1] is 523. Moreover, in test [2], the “% (% gated × mean)” value stood at 82.2%. For the same molecule, in [3], the “% gated” value is 71%.

B4: recombinant humanized anti-CD66c antibody Protein ID 3019 (Vk7 + VH10) (antibody, human IgG1, V domains shown)
VH: QVQLVQSGAEVKKPGASVKVSCKASGYSFTDYTMNWVKQAPGQNLEWIGLINPFHGGTVSNQRFKVKATMTVDVSTNTAYMELSRLRSDDTAVYYCVRGDPVRHYYALAYWGQGTLVTVSS
VL: DIQMTQSPSTLSASVGDRVTITCGASENVYGTLNWYQRKPGKAPKLLIYGATNLADGVPSRFSGSGSGTEYTLTISSLQPDDFATYYCQNVLSAPYTFGGGTKLEIK
notes: also called hu 3019; #51
Regarding B4, the “OD 450 nm” value in test [4] was 0.95 OD; in test [5], 3.04 OD; in test [6], 3.34 OD; in [7], 0.68 OD; in [8] it was 3.26 OD; in [9] it was 1.32 OD. In addition, the “OD 450 nm” value was 2.45 OD in test [10]; 0.8 OD in test [11]; 1.77 OD in [12]; 3.23 OD in [13]; 3.13 OD in [14]. In addition, the Mean in test [1] amounted to 561. For the same molecule, in [2], the “% (% gated × mean)” value is 86.9%. Moreover, the “% gated” value in test [3] turned out to be 70%.
